B1: Hammerhead Ribozyme (parent)
chain: ACCGGAUGUGCUUUCCGGUCUGAUGAGUCCGUGAGGACGAAACAG

Variants of: B1
Assay: self-cleavage, relative activity (ratio to wild type); higher = more cleavage; co-transcriptional

Compared with ACCGGAUGUGCUUUCCGGUCUGAUGCGUCCGAGAGGACGAAACAG [A26C U32A], ACCGGAUGUGCUUUCCGGUCUGAUGCGUCCGGGAGGACGAAACAG [A26C U32G] is lower in self-cleavage: 0.659 for the first, 0.42 for the second.

Compared with ACCGGAUGUGCUUUCCGGUCUGAUGCGUCCGCGAGGACGAAACAG [A26C U32C], ACCGGAUGUGCUUUCCGGUCUGAUUAGUCCGAGAGGACGAAACAG [G25U U32A] is lower in self-cleavage: 0.803 for the first, 0.32 for the second.

First: ACCGGAUGUGCUUUCCGGUCUGAUUAGUCCGCGAGGACGAAACAG [G25U U32C]
Second: ACCGGAUGUGCUUUCCGGUCUGAUUAGUCCGGGAGGACGAAACAG [G25U U32G]
The self-cleavage of the first is lower: 0.268 for the first, 0.392 for the second.

Going from ACCGGAUGUGCUUUCCGGUCUGAUGCGUCCGUGACGACGAAACAG [A26C G35C] to ACCGGAUGUGCUUUCCGGUCUGAUGCGUCCGUGAAGACGAAACAG [A26C G35A], the self-cleavage falls from 0.489 to 0.431.

First: ACCGGAUGUGCUUUCCGGUCUGAUGCGUCCGUGAUGACGAAACAG [A26C G35U]
Second: ACCGGAUGUGCUUUCCGGUCUGAUGGGUCCUUGAGGACGAAACAG [A26G G31U]
The self-cleavage of the first is lower: 0.334 for the first, 0.516 for the second.

Compared with ACCGGAUGUGCUUUCCGGUCUGAUGGGUCCCUGAGGACGAAACAG [A26G G31C], ACCGGAUGUGCUUUCCGGUCUGAUGGGUCCAUGAGGACGAAACAG [A26G G31A] is higher in self-cleavage: 0.324 for the first, 0.327 for the second.

Going from ACCGGAUGUGCUUUCCGGUCUGAUGGGUCCGUGAGGAAGAAACAG [A26G C38A] to ACCGGAUGUGCUUUCCGGUCUGAUGGGUCCGUGAGGAUGAAACAG [A26G C38U], the self-cleavage rises from 0.325 to 0.337.

Going from ACCGGAUGUGCUUUCCGGUCUGAUGGGUCCGUGAGGAGGAAACAG [A26G C38G] to ACCGGAUGUGCUUUCCGGUCUGAUGGGUCCGUAAGGACGAAACAG [A26G G33A], the self-cleavage rises from 0.332 to 0.401.

Going from ACCGGAUGUGCUUUCCGGUCUGAUGGGUCCGUUAGGACGAAACAG [A26G G33U] to ACCGGAUGUGCUUUCCGGUCUGAUGGGUCCGUCAGGACGAAACAG [A26G G33C], the self-cleavage rises from 0.344 to 0.409.

First: ACCGGAUGUGCUUUCCGGUCUGAUGCGUCCGUGAGUACGAAACAG [A26C G36U]
Second: ACCGGAUGUGCUUUCCGGUCUGAUGCGUCCGUGAGAACGAAACAG [A26C G36A]
The self-cleavage of the first is lower: 0.355 for the first, 0.395 for the second.

First: ACCGGAUGUGCUUUCCGGUCUGAUGCGUCCGUGAGCACGAAACAG [A26C G36C]
Second: ACCGGAUGUGCUUUCCGGUCUGAUGGGUCCGUGAGGACGACACAG [A26G A41C]
The self-cleavage of the first is lower: 0.277 for the first, 0.338 for the second.

First: ACCGGAUGUGCUUUCCGGUCUGAUGGGUCCGUGAGGACGAUACAG [A26G A41U]
Second: ACCGGAUGUGCUUUCCGGUCUGAUGGGUCCGUGAGGACGAGACAG [A26G A41G]
The self-cleavage of the first is lower: 0.25 for the first, 0.284 for the second.

First: ACCGGAUGUGCUUUCCGGUCUGAUGGGUCCGUGAGGACGAAACGG [A26G A44G]
Second: ACCGGAUGUGCUUUCCGGUCUGAUGGGUCCGUGAGGACGAAACUG [A26G A44U]
The self-cleavage of the first is higher: 0.654 for the first, 0.347 for the second.

Compared with ACCGGAUGUGCUUUCCGGUCUGAUGGGUCCGUGAGGACGAAACCG [A26G A44C], ACCGGAUGUGCUUUCCGGUCUGAUGCGUCCGUGAGGACGAUACAG [A26C A41U] is higher in self-cleavage: 0.266 for the first, 0.299 for the second.

Compared with ACCGGAUGUGCUUUCCGGUCUGAUGCGUCCGUGAGGACGAGACAG [A26C A41G], ACCGGAUGUGCUUUCCGGUCUGAUGCGUCCGUGAGGACGACACAG [A26C A41C] is higher in self-cleavage: 0.307 for the first, 0.369 for the second.

Compared with ACCGGAUGUGCUUUCCGGUCUGAUGCGUCCGUGAGGAUGAAACAG [A26C C38U], ACCGGAUGUGCUUUCCGGUCUGAUGCGUCCGUGAGGAAGAAACAG [A26C C38A] is higher in self-cleavage: 0.503 for the first, 0.657 for the second.

Going from ACCGGAUGUGCUUUCCGGUCUGAUGCGUCCGUGAGGAGGAAACAG [A26C C38G] to ACCGGAUGUGCUUUCCGGUCUGAUGGAUCCGUGAGGACGAAACAG [A26G G27A], the self-cleavage falls from 0.33 to 0.27.

First: ACCGGAUGUGCUUUCCGGUCUGAUGGCUCCGUGAGGACGAAACAG [A26G G27C]
Second: ACCGGAUGUGCUUUCCGGUCUGAUGGUUCCGUGAGGACGAAACAG [A26G G27U]
The self-cleavage of the first is lower: 0.297 for the first, 0.322 for the second.

First: ACCGGAUGUGCUUUCCGGUCUGAUGGGUCCGUGCGGACGAAACAG [A26G A34C]
Second: ACCGGAUGUGCUUUCCGGUCUGAUGGGUCCGUGUGGACGAAACAG [A26G A34U]
The self-cleavage of the first is lower: 0.346 for the first, 0.353 for the second.

Going from ACCGGAUGUGCUUUCCGGUCUGAUGGGUCCGUGGGGACGAAACAG [A26G A34G] to ACCGGAUGUGCUUUCCGGUCUGAUGGGUCCGUGAGGACGAAACAC [A26G G45C], the self-cleavage rises from 0.305 to 0.389.

Compared with ACCGGAUGUGCUUUCCGGUCUGAUGGGUCCGUGAGGACGAAACAA [A26G G45A], ACCGGAUGUGCUUUCCGGUCUGAUGGGUCCGUGAGGACGAAACAU [A26G G45U] is higher in self-cleavage: 0.3 for the first, 0.338 for the second.

First: ACCGGAUGUGCUUUCCGGUCUGAUGCGUCCGUAAGGACGAAACAG [A26C G33A]
Second: ACCGGAUGUGCUUUCCGGUCUGAUGCGUCCGUUAGGACGAAACAG [A26C G33U]
The self-cleavage of the first is lower: 0.655 for the first, 0.774 for the second.

First: ACCGGAUGUGCUUUCCGGUCUGAUGCGUCCGUCAGGACGAAACAG [A26C G33C]
Second: ACCGGAUGUGCUUUCCGGUCUGAUGCGUGCGUGAGGACGAAACAG [A26C C29G]
The self-cleavage of the first is higher: 0.559 for the first, 0.303 for the second.

First: ACCGGAUGUGCUUUCCGGUCUGAUGCGUUCGUGAGGACGAAACAG [A26C C29U]
Second: ACCGGAUGUGCUUUCCGGUCUGAUGCGUACGUGAGGACGAAACAG [A26C C29A]
The self-cleavage of the first is higher: 0.448 for the first, 0.241 for the second.

Going from ACCGGAUGUGCUUUCCGGUCUGAUGCGUCCGUGAGGUCGAAACAG [A26C A37U] to ACCGGAUGUGCUUUCCGGUCUGAUGCGUCCGUGAGGCCGAAACAG [A26C A37C], the self-cleavage rises from 0.506 to 0.518.

First: ACCGGAUGUGCUUUCCGGUCUGAUGCGUCCGUGAGGGCGAAACAG [A26C A37G]
Second: ACCGGAUGUGCUUUCCGGUCUGAUGCGUCCGUGAGGACCAAACAG [A26C G39C]
The self-cleavage of the first is higher: 0.671 for the first, 0.45 for the second.

First: ACCGGAUGUGCUUUCCGGUCUGAUGCGUCCGUGAGGACUAAACAG [A26C G39U]
Second: ACCGGAUGUGCUUUCCGGUCUGAUGCGUCCGUGAGGACAAAACAG [A26C G39A]
The self-cleavage of the first is lower: 0.351 for the first, 0.366 for the second.

First: ACCGGAUGUGCUUUCCGGUCUGAUGGGUCAGUGAGGACGAAACAG [A26G C30A]
Second: ACCGGAUGUGCUUUCCGGUCUGAUGGGUCGGUGAGGACGAAACAG [A26G C30G]
The self-cleavage of the first is higher: 0.307 for the first, 0.245 for the second.

Work on ACCGGAUGUGCUUUCCGGUCUGAUGGGUCUGUGAGGACGAAACAG [A26G C30U] yielded a self-cleavage of 0.404.

From the RNAGym collection of RNA variant scans (doi:10.7554/elife.80360)
